What all share (test): AUC; sedimentation velocity, interference optics; 40 uM protein in 25 mM TES, 100 mM NaCl, 100 uM EDTA, pH 7.4; apo samples and samples with 250 uM Cu2+ and Ca2+; no reducing agent; c(s) distribution by SedFit; self-association (monomer, dimer, higher oligomers)
In assay [1] the target is human S100A5, wildtype (human) (UniProt P33763).
Assay [2] has the same target. The source holds these as a separate data set.
The target in assay [3] is human S100A5 C43S/C79S, Cysteine-free variant (human) (UniProt P33763).

Like-named read-outs stand apart in the source and are kept apart here. Some results are limits rather than exact numbers.

As to “human S100A5, wildtype (from UniProt P33763 1-92) (natural protein)”, the results for the stoichiometry N in assay [1] and in assay [2] were over 12 and 2, respectively.
Regarding “human S100A5 C43S/C79S, Cysteine-free variant (from UniProt P33763 1-92) (natural protein)”, the stoichiometry N in assay [3] worked out at 2.

The stoichiometry N is the number of molecules, sites or subunits per partner or assembly.

The record behind these values is article PMC5700546.
